Biological target: expa_drome ex (UniProt Q07436)
Sequence of UniProt Q07436 (Q07436 whole entry): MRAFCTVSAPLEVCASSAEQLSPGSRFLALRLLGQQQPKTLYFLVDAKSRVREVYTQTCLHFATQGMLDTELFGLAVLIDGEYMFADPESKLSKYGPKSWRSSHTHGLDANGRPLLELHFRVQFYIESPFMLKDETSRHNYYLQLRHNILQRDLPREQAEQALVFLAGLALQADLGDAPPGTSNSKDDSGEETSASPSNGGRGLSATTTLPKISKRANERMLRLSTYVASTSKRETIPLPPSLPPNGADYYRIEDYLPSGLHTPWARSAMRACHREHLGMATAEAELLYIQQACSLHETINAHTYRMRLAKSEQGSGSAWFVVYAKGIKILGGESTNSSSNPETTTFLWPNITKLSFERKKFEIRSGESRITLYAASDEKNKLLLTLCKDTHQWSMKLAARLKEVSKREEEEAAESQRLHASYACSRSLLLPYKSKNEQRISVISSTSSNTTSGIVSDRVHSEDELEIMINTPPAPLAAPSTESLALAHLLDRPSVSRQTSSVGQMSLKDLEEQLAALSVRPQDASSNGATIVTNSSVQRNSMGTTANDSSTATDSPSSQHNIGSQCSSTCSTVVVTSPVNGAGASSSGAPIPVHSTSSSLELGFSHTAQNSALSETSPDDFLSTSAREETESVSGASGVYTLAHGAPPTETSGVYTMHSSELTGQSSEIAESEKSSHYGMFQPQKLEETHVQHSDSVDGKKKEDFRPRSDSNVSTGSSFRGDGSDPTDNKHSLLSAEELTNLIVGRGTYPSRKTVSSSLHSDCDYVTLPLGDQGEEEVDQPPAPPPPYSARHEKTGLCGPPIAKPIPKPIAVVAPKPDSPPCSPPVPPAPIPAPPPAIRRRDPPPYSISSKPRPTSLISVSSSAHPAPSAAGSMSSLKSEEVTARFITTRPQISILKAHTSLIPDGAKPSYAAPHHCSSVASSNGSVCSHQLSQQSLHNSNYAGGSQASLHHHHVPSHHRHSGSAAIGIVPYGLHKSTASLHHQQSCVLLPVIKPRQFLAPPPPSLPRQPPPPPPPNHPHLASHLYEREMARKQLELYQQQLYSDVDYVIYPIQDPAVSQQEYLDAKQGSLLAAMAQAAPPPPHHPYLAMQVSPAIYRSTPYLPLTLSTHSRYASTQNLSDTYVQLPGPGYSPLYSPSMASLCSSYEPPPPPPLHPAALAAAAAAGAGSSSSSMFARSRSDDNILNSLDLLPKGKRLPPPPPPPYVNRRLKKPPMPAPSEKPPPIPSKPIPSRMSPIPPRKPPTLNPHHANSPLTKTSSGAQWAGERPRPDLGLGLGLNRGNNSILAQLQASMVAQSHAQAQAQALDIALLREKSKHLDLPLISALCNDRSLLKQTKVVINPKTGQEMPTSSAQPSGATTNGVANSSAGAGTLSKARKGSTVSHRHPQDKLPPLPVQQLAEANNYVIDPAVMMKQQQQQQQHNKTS

## Protein crumbs (Drosophila melanogaster (Fruit fly)), P10040 Y2119A;P2121A;E2125A
  effect of a mutation on the interaction: disrupting interaction

Source: IntAct's records for PubMed 20498073
